The supplement of paper PMC12764529
± gives the half width of the 95% confidence interval.

Experiments:
[1] = folding stability dG unfold from trypsin proteolysis; higher = more stable
Outline: (§1)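 Unfolding free energy was derived, per protease or combined, by relating Bayesian-fitted K50 values from sequencing counts to a sequence-predicted unfolded-state K50 and a shared folded-state K50. The underlying digests exposed cysteine-free mini-proteins under 80 residues, in a PA-tagged cDNA display construct, to trypsin and chymotrypsin at 11 threefold-diluted concentrations and to a no-protease condition. A filter kept only designs with AlphaFold2 dimer inter-PAE above 15.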

[2] = folding stability dG unfold from chymotrypsin proteolysis; higher = more stable
Outline: as §1

[3] = folding stability dG unfold (combined trypsin and chymotrypsin); higher = more stable
Outline: as §1

Sequence	folding stability dG unfold [1] [kcal/mol]	folding stability dG unfold [2] [kcal/mol]	folding stability dG unfold [3] [kcal/mol]
SAGGSAGGSGDDIPTLTLVIKVDPNAITPEDIEEIKQAFLDLGYKEVTVTRNPETGYLVVELGSAGGSAGGS [r12_1025_TrMRF]	3.03 ± 0.25	2.93 ± 0.11	3.01 ± 0.21
SAGGSAGGSAGPIKITSVEYDPNSGTIIARFPDGVVIRIKMNPDGNFKIDEIYPIKPGDLSAGGSAGGSAGG [r17_61_TrROS]	2.37 ± 0.088	1.57 ± 0.08	2.02 ± 0.14
SAGGSAGGSAGGGSVTLKRPGGSEVTLPDVTADSTITTLPDGTTVVTIPGTGKTYVVPSSAGGSAGGSAGGS [r10_1035_JUSTAS]	0.604 ± 0.03	0.111 ± 0.2	0.495 ± 0.093
SAISPTERVEATDYKSPNGAVGSTTTFPDPEGSTVSIVREGSTWRLVTVNPDGSVSEREVSPEEAAALLASA [r9_1144_JUSTAS]	1.89 ± 0.04	1.71 ± 0.065	1.86 ± 0.067
SAGGSVVPASEPVTIPDTATGTTLTLPTPAGATITPDPATNTTTVTFTDGDRASSVTFVNGAATSASTASAG [r5_22_JUSTAS]	-0.53 ± 0.098	-0.139 ± 0.21	-0.162 ± 0.11
SAGGSAGGSPSVVTLVSPDYYAEAFYFPDFVLVVLYDPEKGPPQVFLVSNENGELKFFPASEASAGGSAGGS [r12_632_TrMRF]	2.28 ± 0.18	3.24 ± 0.059	2.85 ± 0.18
SAGGMVIIIPSPDNTVLIIEIEGDKAKIIIINPEDGSAVIIELPIEPNGDGSFILKITSIEVLEDADISAGG [r13_556_TrMRF]	2.97 ± 0.2	3.34 ± 0.13	3.27 ± 0.26
SAGGMPLPFRITQWDPNTGKPVATFPAVYDPETGLVVITPPDGSKEVFDAPLEEIVEALPSNWTVEPSAGGS [r16_543_TrMRF]	0.121 ± 0.096	-0.0752 ± 0.48	0.083 ± 0.16
SAGGSAGGSEITITLDEETGELHITVPESVKEVKIKVNGEEKTVTLKPGQTLTIPLENVEIEESAGGSAGGS [r20_26_TrROS_Hall]	1.75 ± 0.11	1.55 ± 0.063	1.7 ± 0.2
SAGGEVRIEVEIEVDPETGTVTVRAKIERDGKLFEVEMTLRVEPEEKPEKAPEVTVTVTVVFKPEGKSAGGS [r16_108_TrROS_Hall]	3.01 ± 0.26	2.54 ± 0.076	2.78 ± 0.34
SAGGSAGGSAGKKIIIKVKPNMTPEEIAKKLAEELGVEVEIKKVKKLKNGELYIEIEIKPSAGGSAGGSAGG [r17_222_TrROS_Hall]	3.09 ± 0.17	2.48 ± 0.19	2.82 ± 0.3
GSEIKAGRARSSDGTGRIRVVLEREDGSSVEFELDLPGLPGDTFYLDLPESLPLKAKETWVYVDDKPYPVTS [r1_70_TrMRF]	0.665 ± 0.054	1.25 ± 0.037	1.08 ± 0.067
SMPNTIEEIRFTFTLPDDTPVESEVDPDGKVTGTYPDGLKIEATLEPDSGKLTVKVTFPDGLPAEATIDLSA [r9_99_TrMRF]	1.6 ± 0.09	1.78 ± 0.042	1.7 ± 0.089
SAGKALSPEELARYVREKYGLPADAPITIEEVPGKYTLSLPDLRVEVTVTDDTTTVTLRPPDPGPEAALSAG [r5_190_JUSTAS]	0.97 ± 0.044	1.57 ± 0.16	1.42 ± 0.14
SAGGGPNTYVKVTLPLPPNKADVVEEIAKLFPNVKVEVTTTPENGTLPVTFYFPSPDGSPDAKVSIFSAGGS [r8_267_TrMRF]	0.407 ± 0.15	1.11 ± 0.31	0.754 ± 0.15
SAGGSSMTTKTINLSLPNGVEELTITITTPPDGTYNATFYFPKTGKKTTHNFTSEEEIEKFIEELIKESAGG [r13_857_JUSTAS]	2.97 ± 0.086	4.291 ± 0.036	4.01 ± 0.089
SAGGSAGGSAGGPYIRVLRSDGKPIVVPVRADDPELFDRVVAELEAAGYPVVKAEVLRLSAGGSAGGSAGGS [r10_231_TrMRF]	-0.818 ± 0.78	0.155 ± 0.12	-0.041 ± 0.093
SAGGSAGGSAGGSPVEIKLKELPDGVLVAEATFTLENGETVKIKAVYDKKTKKLHFELVSAGGSAGGSAGGS [r4_13_TrROS_Hall]	2.15 ± 0.086	3.5 ± 0.085	3.09 ± 0.098
SAGGSAGGSAGKLKIKSVITFESEDDLIVKLIEVDDKVFAIVLDPKTGKPVKIIPDNEIFSAGGSAGGSAGG [r11_851_TrMRF]	0.0652 ± 0.13	1.2 ± 0.13	0.873 ± 0.18
SAGGPPGDPILLRISYTIRPNGKERTMDHEIPFKNPNQPITLEQIRKELRDALPPGYKITDVEIDVLSAGGS [r16_407_TrROS]	0.364 ± 0.069	0.276 ± 0.16	0.444 ± 0.1
SAGGSAGGSAGMVLPVTKVYRDGDTVYLYFDGLGLIAEIRIDDDKITLPSVYRVHPDEDLSAGGSAGGSAGG [r17_30_TrMRF]	0.835 ± 0.038	0.438 ± 0.11	0.691 ± 0.095
